± gives the uncertainty stated by the source.
Assay: amyloid nucleation score (Sup35N fusion, yeast selection) (log enrichment); library NNK2; higher = more nucleation; inactive = no reads after selection
Summary of the method: (§1)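 Yeast lacking psi expressed peptides of 20 random codons fused to Sup35N, received 100 μM copper sulfate for 24 hours, and were then grown for 7 days at 30°C on medium lacking adenine and uracil. Illumina sequencing of input and output plasmid inserts provided the reads. Nucleation scores are DiMSum log enrichments of output over input, centred on the mode of non-aggregating sequences. Any sequence with under 100 input reads was excluded.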

| Substance | amyloid nucleation score |
| --- | --- |
| LFGFLTTRVPWIFSWMVPTA | -0.003 ± 0.44 |
| QKWVF | -0.76 ± 0.31 |
| YTISSIVVLDMFS | 1.41 ± 0.21 |
| YYGQSPALDRR | -0.238 ± 0.45 |
| MDYTFSLQTMCGVWYCYWGR | 1.31 ± 0.31 |
| YAESSNDARSSFISKVSAFI | inactive |
| TDVTYRNVVVSSRKFSGNRN | 8.149 ± 0.073 |
| FAGYECIE | -0.881 ± 0.37 |
| SYFLYLGLNPVYQWYDSFVV | 1.47 ± 0.14 |
| QCGGIGFLILLNVCGDGLWI | 4.37 ± 0.092 |
| KKHIWGCMRYKMLTL | -0.393 ± 1.1 |
| FMLFRRGKNQRFRRLTDYKN | -2.44 ± 1.1 |
| LYGHGSILVRTNGGISFRRN | -1.02 ± 1.1 |
| FDRRVDV | -0.076 ± 0.29 |
| LYVLTNSGPHCLCVGMMHYN | inactive |
| FVPSSLEGPLAGCYSAFIFE | inactive |
| VAVTMHYDNFHCLLCCCSTL | 8.384 ± 0.078 |
| YFFTLKV | 0.497 ± 0.46 |
| ALRLLSFKVMVVEDYLTMTL | 2.91 ± 0.098 |
| SISIPCRYYKGLRSTSLYSR | -0.264 ± 0.26 |
| SCAIELLVQNNSEHLRLITI | -0.266 ± 0.3 |
| CILGENYRIQSTDAHKGVSR | -0.205 ± 0.19 |
| DMDRCLGY | 0.812 ± 0.2 |
| TRDIELWLGWNRKEVCVLLE | inactive |
| INQFIFGTKRMSKNYVSMVR | inactive |
| RVYLMLLVQYRTWSYVFVDC | -0.402 ± 0.26 |
| FNFYKWYYIGLTAISFVYTV | -1.51 ± 1 |
| ASSRFDDVINDRIRILVCAV | -0.102 ± 0.49 |

Assay: amyloid nucleation score (Sup35N fusion, yeast selection) (log enrichment); library NNK3; higher = more nucleation; inactive = no reads after selection
Summary of the method: as §1

| Substance | amyloid nucleation score |
| --- | --- |
| DMSSSGITGTEFRCNYYHEY | inactive |
| LSIVQD | -0.413 ± 1.1 |
| GCYWSRLGVDHRMPMFIARD | inactive |
| DFNSVVLPNGV | inactive |
| ATTDGTVSCVYPRFRLFWCI | inactive |
| PCLSMRSNLRGYTWWSVGGY | 1.11 ± 0.14 |
| RFWLLRRVVWEME | inactive |
| LEYAYSELNSSVSTLSSFE | inactive |
| TDVVSSVILRYSFFGHVNEF | inactive |
| SVFQWHPFIESKGNLLSTVK | inactive |
| ALYNCSCQDNGVQFNK | inactive |
| FFRSCWCFVLLLNDCMITSL | inactive |
| GGHENKKRYSSRTIGMCVHE | inactive |
| GSICYHGWTFKGKVKILNGI | inactive |
| WNSHQREEYTVDCYVVSVKL | -0.023 ± 0.6 |
| MKVEVYPSTVFMRYRVNWVI | inactive |
| ASVRTYVDTNHYNLAEILRL | inactive |
| DSQVSTTGVMEDRYLPILCF | inactive |
| SYSWYFYSAGTSWI | inactive |

| Substance | amyloid nucleation score |
| --- | --- |
| FSCSNSLTMVFVEDFNHATY | inactive |
| LWRTGRALWAMNWKAYIQFK | inactive |
| RQLVNCQGFVLYTREMDFEA | inactive |
| LLFQMVHLTCVMYLLVSSTL | inactive |
| CSQPCRHFYKVKGGYTFKCL | inactive |
| FLGFEYILIAFRVGQYYLTG | inactive |
| YPYSSVTRNILCVENRCTGW | inactive |
| EYMCACSLEILVL | inactive |
| TINRLLICI | -0.14 ± 0.57 |
| CCMVYGGYMM | inactive |
| RLFFGYCRMDVIFAPYISCV | inactive |
| YPKACVI | inactive |
| THPVSCRYVSPDMSSAHYFV | inactive |
| ANKSTIGLFMRLPYCPGSN | -0.148 ± 0.96 |
| NKDWREVCSKLNLGSCPTPE | inactive |
| SFRDPHLTHSSVDCRTVYHI | inactive |
| LTVCV | inactive |
| GSSSCY | inactive |
| HFVLCDHYVR | inactive |

Reference: the supplement of paper PMC12042874
